Results on one substance are retold here after PMC10753161.

In assay [1] the target is His-tagged StBIN2 protein (potato (Solanum tuberosum)).
The target in assay [2] is StBIN2-M (potato (Solanum tuberosum)).

Regarding “His-tagged StSN2 protein (from UniProt Q93X17 24-104) (natural protein)”, in assay [1], the StBIN2 kinase activity as ATP consumption (Kinase-Lumi), 5 μg StBIN2 with varying masses of StSN2 up to 15 μg, against StBIN2 alone was determined as 10 fold. In addition, in assay [2], the ATP consumed by StBIN2-M with StSN2 against StBIN2 with StSN2; 5 μg kinase + 5, 10 and 15 μg StSN2 (reduced by 63%, 14% and 12%) amounted to 63 % reduction.
